Results taken from the nanobody polyreactivity screen of Harvey et al. (2022).

Test: yeast display, Sf9 membrane polyspecificity reagent, FACS + sequencing; frameworks hold sequencing errors
Method in brief: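 Nanobodies from a synthetic yeast display library (Saccharomyces cerevisiae BJ5465), induced 36–48 hours with galactose, were stained 1 hour at 4 °C with 10% biotinylated, detergent-solubilized Sf9 membrane reagent, enriched on streptavidin microbeads, then FACS-sorted. Anti-HA (expression) and streptavidin (reagent binding) fluorescence set low and high (top ~1%) gates. Polyreactivity labels come from the gate of origin. Genes were colony-PCR amplified, MiSeq 2 × 250 sequenced and filtered by CDR length.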

| Sequence | polyreactivity (PSR sort gate) |
| --- | --- |
| QVQLVESGGGLVQAGGSLRLSCAASGRTFVSNAMGWYRQAPGKERELVAAISGSGGITYYADSVKGRFTISRDNAKNTVYLQMNSLKPEDTAVYYCNADSSGWFPFDYWGQGTQVTVSS | low polyreactivity |
| QVQLVESGGGLVQAGGSLRLSCAASGSIFVRNVMGWYRQPPGKERELVATIRYRGGSTYYADSVKGRFTISRDYAKNTVYLQMNSLKPEDTAVYYCNARYLWADEYYYWGQGTQVTVSS | low polyreactivity |
| QVQLVESGGGLVQAGGSLRLSCAASGSILGSNVMGWYRQAPGKERELVAAITSGDSTNYADSVKGRFTISRDNAKNTVYLQMNSLKPEDTAVYYCAKPYSVAPAAVLNWYLGYEYWGQGTQVTVSS | low polyreactivity |
| QVQLVESGGGLVQAGGSLRLSCAASGITFDYYAMGWYRQAPGKERELVAAISRSGGSTYYADSVKGRFTISRDKAKNTVYLQMNSLKPEDTAVYYCAAYALTIRAYYYWGQGTQVTVSS | high polyreactivity |
| QVQLVESGGGLVQAGGSLRLSCAASGITFDKNTMGWYRQAPGKERELVAAISARGGSTYYADSVKGRFTISRDNAKYTVYLQMNSLKPEDTAVYYCAATRSYSYRTVYRRKYNYWGQGTQVTVSS | high polyreactivity |
| QVQLVESGGGLVQAGGSLRLSCAASGSNFDYYAMGWYRQAPGKERELVAAIRVSGGSTYYADSVKGRFTISRDNAKNTVYLQMNSLKPEDTAVCYCASSYYDFNYEYYYWGQGTQVTVSS | high polyreactivity |
| QVQLVESGGGLVQAGGSLRLSCASSGTIFSWYTMGRYRQAPGKERELVARITTSGGTTRYADSVKGRFTISRDNAKNTVYFQINSLKPEDTAVYYCAADRSPYWRGYFRYNYWGQGSQVTVSS | high polyreactivity |
| QVQLVETGGGLVQAGGSLRLSCAASGSTFDYNAMGWYRQAPGKERELVASITESGDSTYYADSVKGRFTISRDNAKNTVYLQMNSLKPEDTAVYYCAATQVHWVYVVYYEYEYWGQGTQVTVSS | low polyreactivity |
| QVQLVESGGGLVQAGGSLRLSCAASGRTFENYVMGWYRQAPGKERELVPAITVSGGSTYYADSVKGRFTISRDIAKNTVYLQMNSLKPEDTAVYYCAADPNVLFSQKYYEPNDYWGQGTQVTVSS | low polyreactivity |
| QVQLVESGGGLVQAGGSLRLSCAASGRIFYGYAMGWYRQAPAKERELVAAISWRGGRTYYADSVKGRFTISRDNAKNTVYLQMNSLKPEDTAVYFCNKDFPPQGQLRNMYYWGQGTLVTVSS | high polyreactivity |
| QVQLVESGGGLGQAGGSLRLSCAPSGFIFTLYAMGWYRQAPGKERELVAAIDTSVASTYYADSVKGRFTLSRENAKYTVYLQMNSLKPEDTAVYYCNADGASYLILSYYQPYDYWGQGTQVTVSS | low polyreactivity |
| QVQLVESGGGLVQAGGSLRLSCASSGRICGYYAMGLYRQAPGKERELVAAITSGGSTYYADSVKGRFTISRDNEKNTVYFQMKSLKPEDTAVYFCNKVTRYSPYDYWGQGTQVTVSS | high polyreactivity |
| QVQLVDSGGGLVQAGGSLRLSCAASGSTFTRNVMGWYRQAPGKERELVASISRSGGRTYYADSVKGRFTISRDNAMNTVYLQMNSMKPDDTAVYYCAAKYFYYLDPYDYWGQGTHVTVSS | high polyreactivity |
| QVQLVDSGGGLVQAGGSLRLSCAASGRTFGSYAMGWSRQAPGKERELVAAISSSGGRTYYADSVKGRFTISRDNAKNTVYLQLNSLKPEDTAVYYCNARWRFLYDYWGQGTQVTVSS | high polyreactivity |
| QVQLVDSGGGLVQAGGSLRLSCPASGSIIPYNALGWYRQAPGKERELVATISSGGSTNYADSVKGRFTISRDNAKNTVYFQMNSLKPEDTAVYYCAADVIVFYYAPNYWGDIEYGYWGQGTQVTVSS | low polyreactivity |
| QVQLVESGGGLVQAGCSLRLICAASGFIFRTYAMGWYRQAPGKESELVAAISRGGVRTYYADSVKGRFTISRDNAKNTVYLQMNSLKPEDTAVYYCAADDVHGIYDYWGQGTQVTVSS | high polyreactivity |
| QVQLVESGGGLVQAGGSLRLSCAHSGSSFYRYSMRWYIQAPGKERELDAAISTSGGRTYYADSVKGRFSISRDNAKNTVYLQMNSLKPEDTAVYYCAADQYRYYRSTYDYWGQGTQVTVSS | high polyreactivity |
| QVQLVESAGCLVQAGASLRLSCAASGRIISRNAMGWYRQAPGKERELVAAITWRGGSTYYADSVKGRFTISRDNAKNTVYLQMNSLKPEDTAVYYCNRDYRQYGYAYSGRYYWGQGTQVTVSS | high polyreactivity |
| QVQLVESGGGLVQAGGSLRLSCAASGITFSYYTLGWYRQAPGKERELFARINSGGTTNYADSVKGRFTISRDNAKNTVYLQMNSLKPEDTAVYYCAAEWVSWRWAHKFDYWGQGTQVTVSS | high polyreactivity |
| QVQLVESGGGLVQAGGSLRLSCAASGSIFSRNTMGWYRQAPGKERELVAGISSSGSRTYYADSVKGRFTISRDNPKNTVYLQMNSLKPEDTAVYYCAAEHQRSRGRRYYIGYDYWGQGTQVTVSS | low polyreactivity |
| QVQLVETGGGIVQAGGSLSLSCAASGRIFSPYAMGWYRQAPGKERELVAAISYDDGITYYADSVKGRFTISRDNAKNTVYLQMISLKPEDTAVYYCAADSVTRPAGDYWGQGTQVTVSS | low polyreactivity |
| QVQLVESGGGLVQAGGSLRLSCAASGRTFWYYTMGWYRQAPGKERELVAGITGTGGSTYYADSVKGRFTISRDNAKNTVYLQMNSLKPEDTAVYYCNALRRSQRYWDPYGYDYWGQGTQVTVSS | high polyreactivity |

| Sequence | polyreactivity (PSR sort gate) |
| --- | --- |
| QVQLVESGGGLVQAGGSLRLSCSASGRIFSVYAMGWYRQAPGKERELVAAITWRGGSTYYADSVKGRFTISRDNAKNTVYLQMNSLKPEDTAVYYCAAVESGYGSKRFYYWGQGTQVTVSS | high polyreactivity |
| QVHLVESGGGLVQAGGSLRLSCAASGFIFLPYAMGSYRQAPGKERELVAAITRGGRTYYADSVKGRFTISRDNAKNTVYLQMNSLKPEDTAVYYCAAVVWAPFYEFYYWGQGTQVTVSS | low polyreactivity |
| QVQLVESGGGLVQAGGSLRLSCAASGSTFTYYAMGWYRQAPGKERELVASISSTTGSTYYADSVKGRFTISRDNAKNTVYLQMNSLKPEDTAVYYCAAERVYPWYRYYYWGQGTQVTVSS | low polyreactivity |
| QVQLVETGGGLDQAGVSLRLSCAASGSIFGYNDMGWYRQAPGKERELVAAIDCSDDITYYADSVKGRFTISRDNAKNTVYLQMYSLKPEETAVYYCAAVYYYYQYWAHTYYAGMEYWGQGTQVTVSS | high polyreactivity |
| QVHLVESGGGLVQAGGSHRLSCAASGSIFRYNAMGWYRQAPGKEREFVAIISYSGVRTYYADSVKGRFTISRDNAKNTVYLEMNSLKPEDTAVYYCAADFKQKGHRTRTTYWGQGTQVTVSS | high polyreactivity |
| QVQLVESGGGLVQAGGSLRLSCAAYGYTLYHNAMGWYRQAPGKERELVAAITSSGGRTYYADSVKGRFTISRDNAKNTVYLQMNRLKPDDTAVYYCNAVVWVYSISLSYTGTKYEYWGQGTQVTVSS | high polyreactivity |
| QVQLVESGGGLVQAGGSLRLSCAASGSTFVRNAMGWYRQPPGKDRELVAAISWRGGSTYYADTVKGRFTISRDNAKNTVYLQMNSLKPEDTAVYYCNKVGTWQGPYDYWGQGTQVTVSS | high polyreactivity |
| QVQLVESGGGLVQAGGSLRLSCAASGRIFYKYAMGWYRQAPGKERELVAGITGSGGSTYYADSVKGRFTISRDNAKNTVYLQMNSLKPEDTAVYYCAKRVSYDYWGQGTQVTVSS | low polyreactivity |
| QVQLEESGGRLVQEGGSLRLSCAASGSTFITNAMGWYRQAPGKEWELVAAITYSTGGTYYEDSVKGRFTISRDNAKNTVYLQMYSLKPEDTAVYYCAALLYFFLYDYWGQGTQVTVSS | low polyreactivity |
| QVQLVESGGGLVQAGGSLGLSCAASGSFFYQNAMGWYRQAPGKDREWVAAISRSGGSTYYADSVMGRFTISRDNAKISVDEQMNSLQPEDTPVYYCAARNSRQGSYSRDFWGQGTQVTVSS | high polyreactivity |
| QVQLVESGGGLVQAGGSLRLSCAASGRIFWVYAMGWYRQAPGKERELVAAIDWSDGITYYADSVKGRFTISRDNAKNTVYLQMNSRKPEDTAVYYCGAEYVIYQTYNYWGQGTQVTVSS | high polyreactivity |
| QVQLVESGGGLVQAGGSLRLSSAASGSTFGIYAMGWYRQAPGKERELVAAISSGGSTNYADSVKGRFTISRDNAKNTVYLQMNSLKPEDTAVYYCAVESVYEYGGYVDSAFDYWGQGTQVTVSS | low polyreactivity |
| QVQLVESRGGLVQAGGSLRLSCAASGRTLTAYAMGWYRQAPGKERELVDDISFGGGTTYYADSVKGRFTISSDNAKNTVYLQMNSLKPEDTAVYYCAAANYVDIWDFYWFDDYWGQGTQVTVSS | high polyreactivity |
| QVQLVESGGGLVQAGGSLRLSCAASGSIFKHNDMGWYRQAPGKERELVAAISRSGGATYYAHSVKGRFTISRDNAKNTVYLQMNSLKPEDTAVYYCNAGRRTARYGYWGQGTQVTVSS | high polyreactivity |
| QVQLVDSGGGLVQAGGSLRISCAASGYIFSANAMGWYRKAPGKEREFVAAISSTGGSTYYADSVKGRFTISRDTAKNTVYLQMNSLKTEDTSVYYFEAYIRRYFHYDYWGQGTQVTVSS | high polyreactivity |
| QVQLVESGGGLVQAGGSLRLSCAASGSIFGVYAMGLYRQAPGKERELVASIDTSTGSTYYADSVKGRFTISRDNAKNTVYLQMNSLKPEDTAVYYCNADVGYYFTFEYWGQGTQVTVSS | high polyreactivity |
| QVQLVESGGGLVQAGGSLRLSCAASGIIFASNARGWYIQAPGKERELVASINRRGSSTYYADSVKGRFTISRDNAKNTVYLQMNSLKPEDTAVYYCAARAFNSGLGYTRYDYWGQGTQVTVSS | high polyreactivity |
| QVQLVESGGGLVQAGGSLRLSCAASGSIFYSYAMGWDRQAPGKERELVAAISRIGGTTYYADSVKGRFTISRDNAKNTVYLQMNSLKPEDTAVYYCAAGPLLPRYSQYGYWGQGTQVTVSS | low polyreactivity |
| QVQLVESGGGLVQAGGSLRLSCAASGRTSPYYTMGWYRQAPGKERELVAASGSRTDYADSVKGRFTISRDNAKNTVYLQMNSLKPEDTAVYYCNAYRYRQSSSDKYGYWGQGTQVTVSS | low polyreactivity |
| QVQLLESGGGLVQAGGSLRLSCAASGFIFNHYAMGWYRQAPGKEREFVAAISWSGGSTYYADSVKGRFTISRDNAKNTVYLQMNSLKPEDTAVYYCAASYNGLWHGDYDYWGQGTQVTVSS | low polyreactivity |
| QVQLVESAGGLVQAGGILRLSCAASGSIFVGYDMGWSRQAPGKERELVAAITSSGGGSTYYADSVKGRFTISRDNAKNTVYLQMNSLKPEDTAVYYCAARTSLWWFLKYDYWGQGTQVTVSS | low polyreactivity |
